# Test results reported in patent US20240148828A1.
# Target: NKG2D on human γδ T cells (human) (UniProt P26718)
# Test: cell-based or functional assay
# Sequence of NKG2D on human γδ T cells (human) (P26718 whole entry, stated change not applied): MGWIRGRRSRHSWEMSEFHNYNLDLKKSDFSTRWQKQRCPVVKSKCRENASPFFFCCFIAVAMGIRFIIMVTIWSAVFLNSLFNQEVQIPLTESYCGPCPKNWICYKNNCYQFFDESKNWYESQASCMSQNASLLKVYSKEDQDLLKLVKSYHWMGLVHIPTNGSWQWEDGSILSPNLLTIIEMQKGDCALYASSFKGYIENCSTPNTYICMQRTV
row,Substance,"frequency of Vγ9+ T cells expressing CD107a (plate-bound, together with BTN2A1/3A1-Fc-CD19scFv)"
1,MICA-Fc fusion protein (from UniProt Q29983 24-307),18 % γδ T cells
2,MICB-Fc fusion protein (from UniProt Q29980 23-298),18 % γδ T cells
3,"anti-NKG2D antibody (Clone #149810, R&D Systems)",30 % γδ T cells
